This is an account of results in IntAct's records for PubMed 29892012.

The labels stand for the following.
B1: Coiled-coil alpha-helical rod protein 1 (Homo sapiens), Q8TD31 (parent)
chain: MFPPSGSTGLIPPSHFQARPLSTLPRMAPTWLSDIPLVQPPGHQDVSERRLDTQRPQVTMWERDVSSDRQEPGRRGRSWGLEGSQALSQQAEVIVRQLQELRRLEEEVRLLRETSLQQKMRLEAQAMELEALARAEKAGRAEAEGLRAALAGAEVVRKNLEEGSQRELEEVQRLHQEQLSSLTQAHEEALSSLTSKAEGLEKSLSSLETRRAGEAKELAEAQREAELLRKQLSKTQEDLEAQVTLVENLRKYVGEQVPSEVHSQTWELERQKLLETMQHLQEDRDSLHATAELLQVRVQSLTHILALQEEELTRKVQPSDSLEPEFTRKCQSLLNRWREKVFALMVQLKAQELEHSDSVKQLKGQVASLQEKVTSQSQEQAILQRSLQDKAAEVEVERMGAKGLQLELSRAQEARRRWQQQTASAEEQLRLVVNAVSSSQIWLETTMAKVEGAAAQLPSLNNRLSYAVRKVHTIRGLIARKLALAQLRQESCPLPPPVTDVSLELQQLREERNRLDAELQLSARLIQQEVGRAREQGEAERQQLSKVAQQLEQELQQTQESLASLGLQLEVARQGQQESTEEAASLRQELTQQQELYGQALQEKVAEVETRLREQLSDTERRLNEARREHAKAVVSLRQIQRRAAQEKERSQELRRLQEEARKEEGQRLARRLQELERDKNLMLATLQQEGLLSRYKQQRLLTVLPSLLDKKKSVVSSPRPPECSASAPVAAAVPTRESIKGSLSVLLDDLQDLSEAISKEEAVCQGDNLDRCSSSNPQMSS
partner: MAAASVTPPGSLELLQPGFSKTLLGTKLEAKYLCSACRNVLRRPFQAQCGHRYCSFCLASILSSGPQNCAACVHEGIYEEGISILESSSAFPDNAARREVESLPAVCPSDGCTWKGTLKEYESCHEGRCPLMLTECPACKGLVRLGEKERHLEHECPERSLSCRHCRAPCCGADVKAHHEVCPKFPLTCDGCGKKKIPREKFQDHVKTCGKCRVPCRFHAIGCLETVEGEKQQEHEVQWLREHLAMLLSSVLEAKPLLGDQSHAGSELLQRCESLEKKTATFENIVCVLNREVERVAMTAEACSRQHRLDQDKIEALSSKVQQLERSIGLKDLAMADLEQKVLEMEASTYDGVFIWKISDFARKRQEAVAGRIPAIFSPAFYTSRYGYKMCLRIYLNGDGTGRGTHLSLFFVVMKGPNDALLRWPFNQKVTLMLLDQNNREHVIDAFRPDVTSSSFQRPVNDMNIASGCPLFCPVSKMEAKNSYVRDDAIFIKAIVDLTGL
B2: Alpha-ketoglutarate-dependent dioxygenase alkB homolog 3 (Homo sapiens), Q96Q83 (parent)
chain: MEEKRRRARVQGAWAAPVKSQAIAQPATTAKSHLHQKPGQTWKNKEHHLSDREFVFKEPQQVVRRAPEPRVIDREGVYEISLSPTGVSRVCLYPGFVDVKEADWILEQLCQDVPWKQRTGIREDITYQQPRLTAWYGELPYTYSRITMEPNPHWHPVLRTLKNRIEENTGHTFNSLLCNLYRNEKDSVDWHSDDEPSLGRCPIIASLSFGATRTFEMRKKPPPEENGDYTYVERVKIPLDHGTLLIMEGATQADWQHRVPKEYHSREPRVNLTFRTVYPDPRGAPW
B3: Alpha-ketoglutarate-dependent dioxygenase alkB homolog 3 (Homo sapiens), Q96Q83 (parent)
chain: B2 chain
partner: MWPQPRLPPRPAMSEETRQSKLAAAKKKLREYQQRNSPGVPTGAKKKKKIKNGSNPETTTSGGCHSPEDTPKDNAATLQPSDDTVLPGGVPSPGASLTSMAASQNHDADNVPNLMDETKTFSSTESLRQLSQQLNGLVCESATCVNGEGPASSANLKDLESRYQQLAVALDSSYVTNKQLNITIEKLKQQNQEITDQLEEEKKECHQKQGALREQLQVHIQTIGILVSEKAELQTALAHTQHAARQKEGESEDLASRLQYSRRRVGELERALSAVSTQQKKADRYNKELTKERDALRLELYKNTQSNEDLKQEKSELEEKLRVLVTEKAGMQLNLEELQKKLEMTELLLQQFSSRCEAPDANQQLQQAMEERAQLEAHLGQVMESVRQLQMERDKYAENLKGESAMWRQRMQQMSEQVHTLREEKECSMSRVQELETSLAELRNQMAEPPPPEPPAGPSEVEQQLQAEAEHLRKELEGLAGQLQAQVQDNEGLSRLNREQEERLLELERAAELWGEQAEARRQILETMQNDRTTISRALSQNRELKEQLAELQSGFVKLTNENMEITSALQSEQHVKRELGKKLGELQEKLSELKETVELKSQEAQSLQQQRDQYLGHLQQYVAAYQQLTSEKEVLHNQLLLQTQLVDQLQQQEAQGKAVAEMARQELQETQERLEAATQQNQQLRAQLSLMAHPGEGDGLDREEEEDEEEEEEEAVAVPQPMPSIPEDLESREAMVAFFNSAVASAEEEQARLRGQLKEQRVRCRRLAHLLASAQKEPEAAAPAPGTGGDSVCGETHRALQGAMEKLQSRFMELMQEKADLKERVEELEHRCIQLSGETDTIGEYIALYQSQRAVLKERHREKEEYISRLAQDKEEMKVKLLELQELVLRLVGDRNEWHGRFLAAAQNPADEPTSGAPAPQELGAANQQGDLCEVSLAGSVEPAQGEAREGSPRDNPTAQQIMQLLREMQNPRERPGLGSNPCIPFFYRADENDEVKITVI
B4: Heterogeneous nuclear ribonucleoprotein F (Homo sapiens), P52597 (parent)
chain: MMLGPEGGEGFVVKLRGLPWSCSVEDVQNFLSDCTIHDGAAGVHFIYTREGRQSGEAFVELGSEDDVKMALKKDRESMGHRYIEVFKSHRTEMDWVLKHSGPNSADSANDGFVRLRGLPFGCTKEEIVQFFSGLEIVPNGITLPVDPEGKITGEAFVQFASQELAEKALGKHKERIGHRYIEVFKSSQEEVRSYSDPPLKFMSVQRPGPYDRPGTARRYIGIVKQAGLERMRPGAYSTGYGGYEEYSGLSDGYGFTTDLFGRDLSYCLSGMYDHRYGDSEFTVQSTTGHCVHMRGLPYKATENDIYNFFSPLNPVRVHIEIGPDGRVTGEADVEFATHEEAVAAMSKDRANMQHRYIELFLNSTTGASNGAYSSQVMQGMGVSAAQATYSGLESQSVSGCYGAGYSGQNSMGGYD
B5: Coiled-coil alpha-helical rod protein 1 (Homo sapiens), Q8TD31 (parent)
chain: B1 chain
partner: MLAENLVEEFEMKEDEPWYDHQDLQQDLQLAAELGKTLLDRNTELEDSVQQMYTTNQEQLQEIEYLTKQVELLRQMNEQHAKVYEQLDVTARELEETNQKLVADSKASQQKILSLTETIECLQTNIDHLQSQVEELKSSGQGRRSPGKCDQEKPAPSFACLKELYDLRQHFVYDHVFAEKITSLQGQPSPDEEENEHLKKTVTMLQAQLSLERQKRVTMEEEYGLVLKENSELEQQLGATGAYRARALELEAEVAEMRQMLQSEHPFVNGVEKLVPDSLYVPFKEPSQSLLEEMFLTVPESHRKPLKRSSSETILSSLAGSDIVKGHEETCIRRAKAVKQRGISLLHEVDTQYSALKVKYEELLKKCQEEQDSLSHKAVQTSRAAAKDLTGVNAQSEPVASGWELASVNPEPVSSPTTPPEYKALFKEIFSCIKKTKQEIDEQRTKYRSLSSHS

The variants in the first assay derive from B1. The note with it: with traf2_human TRAF2, Q12933.
Take W337R: the “effect of a mutation on the interaction” value is given as “disrupting interaction strength”.

The variants in the next assay derive from B2. The note with it: with ikzf1_human IKZF1, Q13422.
Chain of ikzf1_human IKZF1, Q13422 (Q13422 whole entry): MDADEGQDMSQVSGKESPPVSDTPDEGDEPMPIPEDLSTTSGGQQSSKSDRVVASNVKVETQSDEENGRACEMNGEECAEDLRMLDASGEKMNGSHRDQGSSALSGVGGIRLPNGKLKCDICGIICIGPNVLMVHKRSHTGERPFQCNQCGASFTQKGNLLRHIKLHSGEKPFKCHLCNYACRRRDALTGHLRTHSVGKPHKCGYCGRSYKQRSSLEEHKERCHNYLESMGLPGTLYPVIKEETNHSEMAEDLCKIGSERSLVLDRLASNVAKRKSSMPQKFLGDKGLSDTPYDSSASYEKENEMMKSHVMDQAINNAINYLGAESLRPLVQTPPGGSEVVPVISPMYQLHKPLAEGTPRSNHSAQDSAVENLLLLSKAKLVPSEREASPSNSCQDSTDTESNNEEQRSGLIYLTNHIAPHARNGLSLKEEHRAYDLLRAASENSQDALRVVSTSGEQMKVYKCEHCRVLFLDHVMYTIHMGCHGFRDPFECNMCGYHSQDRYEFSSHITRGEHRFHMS
Turning to R64H, the “effect of a mutation on the interaction” value is reported as “with no effect”.

The variants in another assay derive from B3. The note with it: with goga2_human GOLGA2, Q08379.
As for R64H, the “effect of a mutation on the interaction” value is “with no effect”.

The variants in another assay derive from B4. The note with it: with hnrl1_human HNRNPUL1, Q9BUJ2.
Chain of hnrl1_human HNRNPUL1, Q9BUJ2 (Q9BUJ2 whole entry): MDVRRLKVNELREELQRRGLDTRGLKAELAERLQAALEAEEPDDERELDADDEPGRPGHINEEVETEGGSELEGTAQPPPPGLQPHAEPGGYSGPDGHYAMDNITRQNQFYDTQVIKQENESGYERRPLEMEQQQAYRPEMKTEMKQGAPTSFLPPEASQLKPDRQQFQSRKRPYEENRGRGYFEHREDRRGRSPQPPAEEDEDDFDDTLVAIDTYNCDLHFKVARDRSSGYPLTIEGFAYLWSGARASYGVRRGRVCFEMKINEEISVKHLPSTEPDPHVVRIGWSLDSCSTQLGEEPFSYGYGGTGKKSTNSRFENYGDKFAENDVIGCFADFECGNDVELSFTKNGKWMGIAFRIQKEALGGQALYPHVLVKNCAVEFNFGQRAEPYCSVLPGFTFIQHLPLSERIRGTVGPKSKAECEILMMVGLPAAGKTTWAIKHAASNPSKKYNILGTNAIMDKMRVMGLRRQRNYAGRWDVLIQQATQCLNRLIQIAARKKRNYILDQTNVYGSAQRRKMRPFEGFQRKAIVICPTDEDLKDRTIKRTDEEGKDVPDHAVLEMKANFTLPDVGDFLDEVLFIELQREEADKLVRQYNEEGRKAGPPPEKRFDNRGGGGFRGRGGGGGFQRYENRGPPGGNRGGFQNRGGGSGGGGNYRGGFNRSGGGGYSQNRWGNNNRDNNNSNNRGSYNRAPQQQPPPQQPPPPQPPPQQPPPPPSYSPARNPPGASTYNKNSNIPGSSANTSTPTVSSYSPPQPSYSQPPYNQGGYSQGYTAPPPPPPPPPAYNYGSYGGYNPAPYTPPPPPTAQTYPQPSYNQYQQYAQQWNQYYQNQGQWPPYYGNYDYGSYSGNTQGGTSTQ
For the variant T48A, the “effect of a mutation on the interaction” value is “with no effect”.

In a further assay the parent is B5. The note with it: with cdr2_human CDR2, Q01850.
As to W337R, the “effect of a mutation on the interaction” value was “disrupting interaction strength”.
